Measured values as given in patent US10877024B2, “Methods of determining interferon having direct inhibitory effects on tumors and uses thereof” (SUPERLAB FAR EAST LIMITED, priority 2015, dated 2020).

How the values were obtained:
[1] = tested on: Human Cervical Cancer Hela Xenografts; test: rSIFN-co on human cervical cancer Hela xenografts in nude mice; assay type: in vivo; settings: for TV(mm^3, mean ± SD) (D 0): day 0; for % Inhibition / T/C (%) / TV(mm^3, mean ± SD) (D 28): day 28
Experimental: Then 1.5 mm^3 fragments were prepared for s.c. implantation into the animals.

[2] = tested on: A549 tumor cells; test: Cell viability, MTT assay, 1-6 days; assay type: cell-based, human; settings: 10 μg/ml
Experimental: The cell survival rate was evaluated in a standard MTT assay [3-(4,5-dimethylthiazol-2-yl)-2,5-diphenyltetrazolium bromide assay, Sigma, St. Louis, Mo.). For the assay, about 20 μl MTT (at 4 mg/ml) was added to each well. The cells were incubated at 37° C. for 4 hr. After that, the supernatant of each well was drawn off carefully and then an equal volume (150 microliter) of dimethyl sulfoxide (DMSO) was added to each well and mixed thoroughly on a shaker for 15 min. The absorbance from the plates was read at 595 nm with a Thermo Scientific Microplate Reader (Thermo Fisher Scientific Inc., Lowell, Mass.). The relative cell viability was calculated as follows: Cell viability=(Treated group(OD595) minus blank(OD595))/(Control group(OD595) minus blank(OD595))×100%.

[3] = tested on: Axin2; test: qPCR of Wnt signaling downstream gene in A549 cells; assay type: cell-based, human; settings: 10 μg/ml, 24 hr
Experimental: (§1) After 24 hr of treatment, cellular total mRNA was isolated using TRIZOL Reagent and cDNA was synthesized and further subjected to qPCR, using specific primers of four (4) Wnt signaling downstream genes, Axin2, CD24, Survivin and ID2. Experiments were conducted in triplicate and normalized with the Mock group.
(§2) Total mRNA was isolated using TRIZOL Reagent (Invitrogen, Carlsbad, Calif.) according to the manufacturer's instructions. Complementary DNA (cDNA) was synthesized using a RT-PCR Kit (Cat #:FSQ-101, TOYOBO, Japan) according to the manufacturer's instructions and then subjected to qPCR with a SYBR Green PCR kit (Cat #: QPK-201, TOYOBO, Japan). The primers of the four Wnt pathway target genes were as follows: Axin2 sense primer: 5′-[…]-3′ (SEQ ID NO:8) and antisense primer: 5′-[…]-3′(SEQ ID NO: 9); CD24 sense primer: 5′-[…]-3′ (SEQ ID NO: 10) and antisense primer: 5′-[…]-3′(SEQ ID NO: 11); Survivin sense primer: 5′-[…]-3′ (SEQ ID NO: 12) and antisense primer: 5′-[…]-3′ (SEQ ID NO: 13) and ID2 sense primer: 5′-[…]-3′ (SEQ ID NO: 14) and antisense primer: 5′-[…]-3′(SEQ ID NO: 15).
(§3) The amplification protocol consisted of incubations at 95° C. for 1 minute, 40 cycles (95° C. for 15 seconds, 60° C. for 15 seconds, 72° C. for 30 seconds). Incorporation of the SYBR Green dye into PCR products was monitored in real time with a Bio-Rad Detection System and subsequently analyzed using Bio-Rad CFX manager 2.1 software. The samples were pooled for each condition and run in duplicate. Treated samples were compared to Mock using the 2^−ΔΔCt method and plotted as fold change. GAPDH was used as the normalization control.

[4] = tested on: CD24; test: as above; assay type: cell-based, human; settings: 10 μg/ml, 24 hr
Experimental: as §1, §2, §3

[5] = tested on: ID2; test: as above; assay type: cell-based, human; settings: 10 μg/ml, 24 hr
Experimental: as §1, §2, §3

[6] = tested on: Survivin; test: as above; assay type: cell-based, human; settings: 10 μg/ml, 24 hr
Experimental: as §1, §2, §3

[7] = tested on: procaspase-3, cleaved caspase-3, procaspase-8, cleaved caspase-8, PARP; test: Apoptosis-related molecular markers by Western Blot; assay type: cell-based, human; settings: A549 and SW620 cells, 24 hr or 48 hr; interferons 10 mcg/ml
Source text: Thereafter, apoptosis-related molecular markers were monitored by Western Blot. The primary antibodies used were mouse monoclonal anti-beta-tubulin (1:2000, Cat #: CW0098A) and mouse monoclonal anti-GAPDH (1:2000, Cat #: CW0100A) (Kangwei Biotechnology, China); mouse monoclonal anti-PARP (1:1000, Cat #: sc-2007, Santa Cruz Biotechnology, Inc.); rabbit monoclonal anti-procaspase 3 (1:1000, Cat #: 9665), and rabbit polyclonal anti-cleaved caspase 3 (1:1000, Cat #: 9661) (Cell Signaling Technology, USA); goat polyclonal anti-procaspase 8 (1:1000, Cat #: sc-6136, Santa Cruz Biotechnology, Inc); rabbit monoclonal anti-cleaved caspase 8 (1:1000, Cat #: 9496) (Cell Signaling Technology, USA).

[8] = tested on: STAT1 (Tyr701), STAT2 (Tyr690), STAT3(Tyr705); test: STAT phosphorylation by Western Blot; assay type: cell-based, human; settings: A549 cells and Hela cells, 10 μg/ml, 0-240 minutes
Source text: After treatment, the cells were collected, cellular proteins were extracted and loaded onto SDS-PAGE […] for Western Blot analysis to observe the phosphorylation of STAT1 (Tyr701), STAT2 (Tyr690), and STAT3(Tyr705). GAPDH was used as a loading control.
The primary antibodies used were: STAT1 (1:1000, Cat #: 9175S), Tyr701 phosphorylated-STAT1 (1:1000, Cat #: 9167S), STAT2 (1:500, Cat #4594), Tyr690 phosphorylated-STAT2 (1:1000, Cat #: 441S), STAT3 (1:1000, Cat #: 9132), Tyr705 phosphorylated-STAT3 (1:1000, Cat #: 9145S). Anti-mouse (Cat #:sc-2005) or rabbit (Cat #: sc-2004) or goat (Cat #: sc-2020) HRP-conjugated secondary antibodies (Santa Cruz Technology, Santa Cruz, Calif.) were used at concentrations of 1:2000. Blots were visualized by use of Luminescence/Fluorescence Imaging LAS4000 System (GE Healthcare Life Sciences, USA) with super signal west pico chemiluminescnet substrate kit (Thermo Scientific, USA).

[9] = 0.05 mg/mouse i.t. every other day
[10] = 0.10 mg/mouse i.t. every other day
[11] = 0.15 mg/mouse i.t. every other day

B1: rSIFN-co: Recombinant super-compound interferon; amino acid sequence SEQ ID NO: 1 (same as INFERGEN), encoded by novel nucleotide sequence SEQ ID NO: 2 (protein)
chain: MCDLPQTHSLGNRRALILLAQMRRISPFSCLKDRHDFGFPQEEFDGNQFQKAQAISVLHEMIQQTFNLFSTKDSSAAWDESLLEKFYTELYQQLNDLEACVIQEVGVEETPLMNVDSILAVKKYFQRITLYLTEKKYSPCAWEVVRAEIMRSFSLSTNLQERLRRKE
modifications: Amino acid sequence of recombinant interferon
[1]; [9]
  TV(mm^3, mean ± SD) (D 0): 135 ± 26 mm^3
  % Inhibition: 46.67%
  T/C (%): 53.33%
  TV(mm^3, mean ± SD) (D 28): 886 ± 232 mm^3
[1]; [10]
  TV(mm^3, mean ± SD) (D 0): 135 ± 28 mm^3
  % Inhibition: 46.67%
  T/C (%): 53.33%
  TV(mm^3, mean ± SD) (D 28): 865 ± 186 mm^3
[1]; [11]
  TV(mm^3, mean ± SD) (D 0): 136 ± 25 mm^3
  % Inhibition: 40.40%
  T/C (%): 59.60%
  TV(mm^3, mean ± SD) (D 28): 1025 ± 400 mm^3
[1]; 0.05-0.15 mg/mouse i.t. every other day, 28 days
  tolerability, signs of toxicity: tolerated the rSIFN-co treatments with no signs of toxicity
[1]; 28-day treatment period
  change in average body weight: Very little change in average body weight
[2]
  cell viability over time (MTT): also apparent for A549 cells for only about the first 3 days of treatment
[3]
  relative expression level of Axin2 mRNA (Mock control set at 1): about 0.4
[4]
  relative expression level of CD24 mRNA (Mock control set at 1): about 0.4
[5]
  relative expression level of ID2 mRNA (Mock control set at 1): about 0.4
[6]
  relative expression level of Survivin mRNA (Mock control set at 1): about 0.4
[7]
  level of cleaved caspase-3 and cleaved caspase-8: neither of the interferons, IFN alpha-2b nor rSIFN-co, caused any reduction in the level of procaspase-3 or procaspase-8 or PARP, or induced any enhancement
  level of procaspase-3, procaspase-8 and PARP: neither of the interferons, IFN alpha-2b nor rSIFN-co, caused any reduction
[8]
  phosphorylation patterns for STAT1, STAT2 and STAT3 (JAK/STATs signaling level): no different from that mediated by IFN alpha-2b
